Data reported in patent US10654893B2, “Self-assembling peptide compositions” (3-D MATRIX, LTD., priority 2014, dated 2020).

Key:
Assay type in all cases: physicochemical
[1] = pH adjustment with 0.1 N NaOH, pH and visual observation; conditions: for Appearance of composition: 2.5%
Protocol: In this Example, pH levels of peptide compositions was adjusted, for example, by addition of 0.1 N NaOH to 2 mL of a 2.5% peptide composition. pH and appearance of the adjusted compositions were observed. An acidic salt was added if the pH level was higher than the desired level.
With certain compositions, when pH levels of peptide compositions were higher than 3.5 (RADA16 (SEQ ID NO:1) and KLD12 (SEQ ID NO:2)) or 3.7 (IEIK13 (SEQ ID NO:3)), the peptide compositions began phase separation (i.e. becoming cloudy). In some embodiments, provided peptide compositions have a pH within the range of about 3.0 to about 3.7 (particularly for IEIK13 (SEQ ID NO:3)), or about 3.0 to about 3.5 (particularly for RADA16 (SEQ ID NO:1) and/or KLD12 (SEQ ID NO:2)).

[2] = Compositions with 0.9% NaCl at pH 3.4 (combined salt and pH)
Protocol: IEIK13 (SEQ ID NO:3), KLD12 (SEQ ID NO:2), and RADA16 (SEQ ID NO:1) were dissolved in salt buffer (e.g. NaCl) and kept at elevated pH level adjusted with alkali salt buffer (e.g. NaOH). The compositions had their pH levels about 2.5-4.0 and lower ionic strength than their critical points. With respect to RADA16 (SEQ ID NO:1), KLD12 (SEQ ID NO:2) and IEIK13 (SEQ ID NO:3), peptide compositions were still clear with 0.9% NaCl (i.e. ionic strength of 0.15 M) at pH 3.4 (adjusted with NaOH). Rheological properties of RADA16 (SEQ ID NO:1) with 0.9% NaCl at pH 3.4 were stiffer than those of RADA16 control (i.e. no ionic strength and pH elevation) and RADA16 (SEQ ID NO:1) with 0.9% NaCl (no pH elevation).

[3] = Vial inversion test of 0.5% RADA16 gels with CaCl2
Protocol: FIGS. 41A-41D depict the protocol used to follow peptide dissolution and to assess effects of particular anions and/or cations, and/or their concentration, on certain RADA16 (SEQ ID NO:1) compositions. As shown, peptide powder in a vial was dissolved in deionized water with vortexing and sonication. The particular peptide composition utilized in this Example was a 1% composition of RADA16 (SEQ ID NO:1) that was mixed at a 1:1 ratio with a 2× salt solution to obtain a final concentration of 0.5% RADA16 (SEQ ID NO:1) and the desired molar concentration of salt.
The protocol depicted in FIGS. 41A-41D was followed to prepare 0.5% solutions of RADA16 (SEQ ID NO:1) with different concentrations of CaCl2. Mixed solutions were allowed to sit for a relaxation period of about 24 hours. Vials were then inverted upside down so that gel properties could be assessed.

In the case of “Arg-Ala-Asp-Ala-Arg-Ala-Asp-Ala-Arg-Ala-Asp-Ala-Arg-Ala-Asp-Ala [RADA16]”, the Observation ([1]; 0.1N NaOH 0 μL/mL, Conc. 2.5%, pH 2.2 (RADA16), 1.8 (IEIK13), 2.1 (KLD12)) is reported as “Clear, thick gel”, the Observation ([1]; 0.1N NaOH 50 μL/mL, Conc. 2.38%, pH 2.3 (RADA16), 2.1 (IEIK13), 2.4 (KLD12)) is reported as “Clear, thick gel” and the Observation ([1]; 0.1N NaOH 100 μL/mL, Conc. 2.27%, pH 2.4 (RADA16), 2.2 (IEIK13), 2.6 (KLD12)) is reported as “Clear, thick gel”. For the same substance, the Observation ([1]; 0.1N NaOH 150 μL/mL, Conc. 2.17%, pH 2.7 (RADA16), 2.7 (IEIK13), 2.9 (KLD12)) was “Clear, thick, stiffer gel”, the Observation ([1]; 0.1N NaOH 200 μL/mL, Conc. 2.08%, pH 2.9 (RADA16), 3.0 (IEIK13), 3.3 (KLD12)) was “Clear, thick, stiffer gel” and the Observation ([1]; 0.1N NaOH 250 μL/mL, Conc. 2.0%, pH 3.2 (RADA16), 3.3 (IEIK13), 4.0 (KLD12)) was “Clear, thick, stiffer gel”. For the same substance, the Observation ([1]; 0.1N NaOH 275 μL/mL, Conc. 1.96%, pH 3.4 (RADA16), 3.7 (IEIK13)) was “Clear, thick, stiffer gel”, the Observation ([1]; 0.1N NaOH 300 μL/mL, Conc. 1.92%, pH 3.6 (RADA16), 4.0 (IEIK13), 4.7 (KLD12)) was “Slightly cloudy, brittle gel” and the Observation ([1]; 0.1N NaOH 350 μL/mL, Conc. 1.85%, pH 4.5 (RADA16), 4.5 (IEIK13), 5.2 (KLD12)) was “Cloudy, phase-separated”. For the same substance, the “Peptide composition pH” value ([1]; 0.1N NaOH added in 2.5% composition 0 μL/mL, Conc. 2.5%) was 2.2, the “Peptide composition pH” value ([1]; 0.1N NaOH added in 2.5% composition 50 μL/mL, Conc. 2.38%) was 2.3 and the “Peptide composition pH” value ([1]; 0.1N NaOH added in 2.5% composition 100 μL/mL, Conc. 2.27%) was 2.4. For the same substance, the “Peptide composition pH” value ([1]; 0.1N NaOH added in 2.5% composition 150 μL/mL, Conc. 2.17%) was 2.7, the “Peptide composition pH” value ([1]; 0.1N NaOH added in 2.5% composition 200 μL/mL, Conc. 2.08%) was 2.9 and the “Peptide composition pH” value ([1]; 0.1N NaOH added in 2.5% composition 250 μL/mL, Conc. 2.0%) was 3.2. For the same substance, the “Peptide composition pH” value ([1]; 0.1N NaOH added in 2.5% composition 275 μL/mL, Conc. 1.96%) was 3.4, the “Peptide composition pH” value ([1]; 0.1N NaOH added in 2.5% composition 300 μL/mL, Conc. 1.92%) was 3.6 and the “Peptide composition pH” value ([1]; 0.1N NaOH added in 2.5% composition 350 μL/mL, Conc. 1.85%) was 4.5. The Appearance of composition ([1]; pH about 3.5 (FIG. 12)) was “clear”, the Appearance of composition ([1]; pH=3.6 (FIG. 12)) was “slightly cloudy” and the Appearance of composition ([1]; pH=4.0 (FIG. 12)) was “precipitated”. The Observation ([1]; pH 7.0, NaOH volume and conc. not given) was “Cloudy, phase-separated”, the Appearance of composition ([2]; 0.9% NaCl (ionic strength of 0.15 M) at pH 3.4 (adjusted with NaOH)) was “still clear” and the “Stiffness versus control and versus 0.9% NaCl without pH elevation” value ([2]; 0.9% NaCl at pH 3.4, 2.5% (FIG. 40)) was “stiffer”. The “Gel functionality on vial inversion” value ([3]; 0.250 M CaCl2) was “fully functional gel”, the “Gel functionality on vial inversion” value ([3]; 0.500 M CaCl2) was “semi-functional gel” and the “Gel functionality on vial inversion” value ([3]; 1M CaCl2) was “non-functional gel”.
